Publication PMC5432818, “Biochemical characterization of a functional recombinant aryl-alcohol dehydrogenase from Taiwanofungus camphorata” (Botanical Studies, 2014)

System: COc1ccc(C=O)cc1OC
Experiment: purified protein
Type: biochemical, Taiwanofungus camphoratus
Details: reduction, 0.2 mM NADPH fixed, 25 mM bis-tris-propane/HCl pH 6.0, 25 °C, veratraldehyde 0.1-0.4 mM

TcAAD (also printed TcADD) (Taiwanofungus camphoratus)
Km: 250 µM
